Assay results: the supplement of paper PMC10567573

B1: CCND2 (parent)
chain: YFKCVQKDIQPYMRRMVATWMLEV
B2: STX5 (parent)
chain: ESTIVELGSIFQQLAHMVKEQEET
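Also: lentivirally expressed fusions sorted by FACS into six bins by GFP to DsRed ratio, PSI derived from sequencing read proportions per bin multiplied by bin number.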

Variants of: B1
Assay: protein stability index of a GFP-peptide fusion (GPS, HEK-293T) (PSI 1-6); higher = more stable
Details: c terminus: a fixed tail appended
In the case of YFKCVQKDIQPYMRRMVATWMVEV [L22V], the protein stability index is reported as 2.94. Variant YFKCVQKDIQPYMRRMVATWMSEV [L22S] has a protein stability index of 2.72. Work on YFKCVQKDIQPYMRRMVATWMREV [L22R] yielded a protein stability index of 1.96. In the case of YFKCVQKDIQPYMRRMVATWMYEV [L22Y], the protein stability index is reported as 2. For YFKCVQKDIQPYMRRMVATWMPEV [L22P], the protein stability index was 1.63. YFKCVQKDIQPYMRRMVATWMWEV [L22W] gave a protein stability index of 2.6. Variant YFKCVQKDIQPYMRRMVATWMQEV [L22Q] has a protein stability index of 1.96. Variant YFKCVQKDIQPYMRRMVATWMTEV [L22T] has a protein stability index of 3. For YFKCVQKDIQPYMRRMVATWMLQV [E23Q], the protein stability index was 2.13. Variant YFKCVQKDIQPYMRRMVATWMLKV [E23K] has a protein stability index of 2.31. With YFKCVQKDIQPYMRRMVATWMLAV [E23A] the protein stability index was 1.78. Variant YFKCVQKDIQPYMRRMVATWMLYV [E23Y] has a protein stability index of 3.34. Work on YFKCVQKDIQPYMRRMVATWMLFV [E23F] yielded a protein stability index of 2.5. For YFKCVQKDIQPYMRRMVATWMLIV [E23I], the protein stability index was 3.03. With YFKCVQKDIQPYMRRMVATWMLVV [E23V] the protein stability index was 2.73. In the case of YFKCVQKDIQPYMRRMVATWMLCV [E23C], the protein stability index is reported as 2.61. Work on YFKCVQKDIQPYMRRMVATWMLMV [E23M] yielded a protein stability index of 2.9. In the case of YFKCVQKDIQPYMRRMVATWMLPV [E23P], the protein stability index is reported as 3.09. Work on YFKCVQKDIQPYMRRMVATWMLTV [E23T] yielded a protein stability index of 2.88. Variant YFKCVQKDIQPYMRRMVATWMLLV [E23L] has a protein stability index of 3.11. Variant YFKCVQKDIQPYMRRMVATWMLNV [E23N] has a protein stability index of 2.39. With YFKCVQKDIQPYMRRMVATWMLDV [E23D] the protein stability index was 2.08. YFKCVQKDIQPYMRRMVATWMLSV [E23S] gave a protein stability index of 3.08. In the case of YFKCVQKDIQPYMRRMVATWMLHV [E23H], the protein stability index is reported as 2.28. Variant YFKCVQKDIQPYMRRMVATWMLRV [E23R] has a protein stability index of 2.96. YFKCVQKDIQPYMRRMVATWMLWV [E23W] gave a protein stability index of 3.1. YFKCVQKDIQPYMRRMVATWMLGV [E23G] showed a protein stability index of 3.51. YFKCVQKDIQPYMRRMVATWMLES [V24S] showed a protein stability index of 2.97. Work on YFKCVQKDIQPYMRRMVATWMLET [V24T] yielded a protein stability index of 1.9. Variant YFKCVQKDIQPYMRRMVATWMLEK [V24K] has a protein stability index of 1.63. With YFKCVQKDIQPYMRRMVATWMLEE [V24E] the protein stability index was 2.42. YFKCVQKDIQPYMRRMVATWMLEH [V24H] showed a protein stability index of 1.94. For YFKCVQKDIQPYMRRMVATWMLEF [V24F], the protein stability index was 3.08. Work on YFKCVQKDIQPYMRRMVATWMLED [V24D] yielded a protein stability index of 1.56. For YFKCVQKDIQPYMRRMVATWMLEA [V24A], the protein stability index was 2.41. With YFKCVQKDIQPYMRRMVATWMLEC [V24C] the protein stability index was 1.93. Work on YFKCVQKDIQPYMRRMVATWMLEQ [V24Q] yielded a protein stability index of 2.5. Variant YFKCVQKDIQPYMRRMVATWMLEY [V24Y] has a protein stability index of 2.06. In the case of YFKCVQKDIQPYMRRMVATWMLEP [V24P], the protein stability index is reported as 1.91. YFKCVQKDIQPYMRRMVATWMLEG [V24G] showed a protein stability index of 2.9. YFKCVQKDIQPYMRRMVATWMLEL [V24L] gave a protein stability index of 2.68. YFKCVQKDIQPYMRRMVATWMLEM [V24M] showed a protein stability index of 2.09. For YFKCVQKDIQPYMRRMVATWMLEI [V24I], the protein stability index was 3.24. With YFKCVQKDIQPYMRRMVATWMLER [V24R] the protein stability index was 2.65. With YFKCVQKDIQPYMRRMVATWMLEW [V24W] the protein stability index was 1.91.

Variants of: B2
Assay: as above
Details: c terminus: a fixed tail appended
ESTGVELGSIFQQLAHMVKEQEET [I4G] gave a protein stability index of 2.42. ESTIVELGSPFQQLAHMVKEQEET [I10P] showed a protein stability index of 5.58. Variant ISTIVELGSIFQQLAHMVKEQEET [E1I] has a protein stability index of 3.04. Variant CSTIVELGSIFQQLAHMVKEQEET [E1C] has a protein stability index of 2.31. For MSTIVELGSIFQQLAHMVKEQEET [E1M], the protein stability index was 2.45. ESTIVELGSIFQQLAHMVAEQEET [K19A] gave a protein stability index of 1.81. ESTIVELGSIFQQIAHMVKEQEET [L14I] gave a protein stability index of 2.09. With EDTIVELGSIFQQLAHMVKEQEET [S2D] the protein stability index was 2.47. Work on EVTIVELGSIFQQLAHMVKEQEET [S2V] yielded a protein stability index of 3.07. In the case of ECTIVELGSIFQQLAHMVKEQEET [S2C], the protein stability index is reported as 3.01. For EHTIVELGSIFQQLAHMVKEQEET [S2H], the protein stability index was 1.92. Variant ESTIVELGSIFQCLAHMVKEQEET [Q13C] has a protein stability index of 2.32. For ESTIVELGSIFQNLAHMVKEQEET [Q13N], the protein stability index was 2.23. In the case of ESTIVELGHIFQQLAHMVKEQEET [S9H], the protein stability index is reported as 2.64. For ESTIVELGSIFQQLAQMVKEQEET [H16Q], the protein stability index was 1.33. Variant ESTIVELGSIFQQLATMVKEQEET [H16T] has a protein stability index of 3.09. With ESTIVELGSIFQQLAHMKKEQEET [V18K] the protein stability index was 4.16. Work on ESTIVELGSIFQQLAHMMKEQEET [V18M] yielded a protein stability index of 2.79. With ESTIVELGSIFQQLAHMVKEQEHT [E23H] the protein stability index was 2.11. With ESTIVEVGSIFQQLAHMVKEQEET [L7V] the protein stability index was 4.25. ESTIVESGSIFQQLAHMVKEQEET [L7S] gave a protein stability index of 5.42. Work on ESTIVEQGSIFQQLAHMVKEQEET [L7Q] yielded a protein stability index of 4.89. ESTIVELGSIFCQLAHMVKEQEET [Q12C] showed a protein stability index of 1.7. In the case of ESTIVELLSIFQQLAHMVKEQEET [G8L], the protein stability index is reported as 1.85. ESTIVELGSIFQQLAHMVKEREET [Q21R] showed a protein stability index of 1.36. For ESTIVELGSIFQQLAHMVKEAEET [Q21A], the protein stability index was 1.67. In the case of ESTIVELGSIFQQLAHMVKEFEET [Q21F], the protein stability index is reported as 1.98. Work on ESTIVELGSIFQQLAHMVKEQIET [E22I] yielded a protein stability index of 2.7. With ESTIVELGSIFQQLAHMVKEQWET [E22W] the protein stability index was 1.53. In the case of ESTIVELGSIFQQLAHMVKEQAET [E22A], the protein stability index is reported as 2.75. ESTIVELGSIFQQLAHMVKEQSET [E22S] showed a protein stability index of 2.44. Variant ESTIVFLGSIFQQLAHMVKEQEET [E6F] has a protein stability index of 2.19. Work on ESTIVILGSIFQQLAHMVKEQEET [E6I] yielded a protein stability index of 3.1. Work on ESTIVMLGSIFQQLAHMVKEQEET [E6M] yielded a protein stability index of 1.95. ESTIVELGSIFQQLAHMVKEQEEE [T24E] showed a protein stability index of 2.12. Work on ESTIKELGSIFQQLAHMVKEQEET [V5K] yielded a protein stability index of 3.1. Variant ESKIVELGSIFQQLAHMVKEQEET [T3K] has a protein stability index of 2.83. In the case of ESNIVELGSIFQQLAHMVKEQEET [T3N], the protein stability index is reported as 2.31. With ESTIVELGSIFQQLAHMVKKQEET [E20K] the protein stability index was 2.86. For ESTIVELGSIFQQLAHMVKWQEET [E20W], the protein stability index was 1.86. ESTIVELGSIFQQLAHMVKNQEET [E20N] gave a protein stability index of 1.53. For ESTIVELGSIFQQLVHMVKEQEET [A15V], the protein stability index was 2.24. Variant ESTIVELGSIFQQLEHMVKEQEET [A15E] has a protein stability index of 4.21. Variant ESTIVELGSILQQLAHMVKEQEET [F11L] has a protein stability index of 2.8. Work on ESTIVELGSIMQQLAHMVKEQEET [F11M] yielded a protein stability index of 2.98. Variant ESTIVELGSINQQLAHMVKEQEET [F11N] has a protein stability index of 5.61. ESTIVELGSIFQQLAHSVKEQEET [M17S] gave a protein stability index of 3.4. Variant ESTIVELGSIFQQLAHEVKEQEET [M17E] has a protein stability index of 3.41. Variant ESTIVELGSIFQQLAHDVKEQEET [M17D] has a protein stability index of 4.11.
